Measurements from PMC12775124, “CUL4A-DDB1-DCAF10 is an N-recognin for N-terminally acetylated Src kinases” (Nature Communications, 2026).
Substitutions are numbered along the chain they refer to. In names and notes the source's numbering stands.

B1: FLAG-DCAF10: FLAG-DCAF10 overexpression in HeLa cells (protein, UniProt Q5QP82 1-559, looked up)
DDB1- and CUL4-associated …: MFPFGPHSPGGDGSAGAGAEEPTPHEGQAAATGPPSPLHPGADATHPPPPARSPRRPGAPSLSPAPRSGELGLPGAPESSTASAPGEPSPPSPPCRRPGPDCRAKSRGRHGLGAGLGGPGARLFGWLKERSLGRGLFVDPARDNFRTMTSLYGSIHPADSVYLSTRTHGAVFNLEYSPDGSVLTVACEQTEVLLFDPISSKHIKTLSEAHEDCVNNIRFLDNRLFATCSDDTTIALWDLRKLNTKVCTLHGHTSWVKNIEYDTNTRLLVTSGFDGNVIIWDTNRYTEDGCPHKKFFHTRFLMRMRLTPDCSKMLISTSSGYLLILHDLDLTKSLEVGSYPILRARRTTSSSDLTTSSSSSGPRVSGSPCHHSDSNSSEKHMSRASQREGVSPRNSLEVVTPEVLGESDHGNCITSLQLHPKGWATLLRCSSNSDDEECTCVYEFQEGAPVRPVSPRCSLRLTHYIEEANVGRGYIKELCFSPDGRMISSPHGYGIRLLGFDKQCSELVDCLPKEASPLRVIRSLYSHNDVVLTTKFSPTHCQIASGCLSGRVSLYQPKF
modifications: FLAG tag
notes: FLAG-DCAF10 overexpression in HeLa cells
B2: DCAF10 triple mutant: DCAF10 triple mutant (F172G, K257A, and I475G) in E3 complex (protein)
chain: B1 DDB1- and CUL4-associated … with F172G, K257A, I475G
modifications: left off: MBP (as in the WT complex; not said for the mutant), end not stated, state not stated

Tests used:
[1] = test system: THOC7; test: THOC7 level after FLAG-DCAF10 overexpression; format: cell-based, human; details: HeLa, NMT1/2 KD 72 h, FLAG-DCAF10 overexpression 24 h
Experimental: (§1) 124 Supplementary Fig. 5. NMT1/2 knockdown leads to an increased turnover of SFKs
(§2) 125 and overexpression of DCAF10 reduces SFK levels after NMT1/2 knockdown.
(§3) 126 a) HeLa cells were treated with NMT1/2 siRNA for 72 h or left untreated in combination
(§4) 127 with FLAG-DCAF10 overexpression for 24 h. Representative WBs are shown. b-c) Left:
(§5) 128 WB quantifications with and without NMT1/2 siRNA of Lyn (b) and THOC7 (c)
(§6) Right: Fold change of Lyn (b) and THOC7 (c) after DCAF10
(§7) 130 overexpression. Untreated: purple; with NMT1/2 RNAi: blue. Individual data points are
(§8) 131 indicated (n = 2 or 3 independent biological replicates). MG132 = proteasome inhibitor;
(§9) 132 CHX = cycloheximide translational inhibitor. d) HeLa cells were treated for 72 h with and
(§10) 133 without NMT1/2 siRNA and treated with cycloheximide or MG132 for the indicated
(§11) 134 periods of time. Representative WBs are shown. Filled circles indicate treatment; empty
(§12) 135 circles indicate no treatment. e-h) Fold-change analysis of protein expression levels under
(§13) 136 the indicated conditions. Left: fold change after 8 h cycloheximide treatment of (e) Lyn,
(§14) 137 (f) Fyn, (g) Src and (h) THOC7. Right: fold change after 4 h MG132 treatment of (e) Lyn,
(§15) Untreated: purple; with NMT1/2 siRNA: blue (n = 3 […]
(§16) 412 serum (FBS). Cells were counted and diluted to 100,000 cells/mL. […]
(§17) 433 fraction was measured by MS (see Mass spectrometry measurements and raw file […]

[2] = test system: Lyn; test: Lyn level after FLAG-DCAF10 overexpression; format: cell-based, human; details: HeLa, NMT1/2 KD 72 h, FLAG-DCAF10 overexpression 24 h
Experimental: as §1, §2, §3, §4, §5, §6, §7, §8, §9, §10, §11, §12, §13, §14, §15, §16, §17

[3] = test system: Src; test: In vitro ubiquitination of immunoprecipitated Src; format: biochemical, human; details: DCAF10 pocket mutant complex
Description: (§18) Having established cellular regulation by DCAF10 under reduced N-myristoylation, we aimed to test whether CUL4A-DDB1-DCAF10 directly ubiquitinates SFKs. […] As we expect NMT1/2 depletion to cause a destabilization of SFKs, their equal or even greater ubiquitination in IPs from untreated cells relative to NMT1/2-depleted cells was unanticipated. We speculate that (i) Nt-acetylated SFKs may degrade rapidly, preventing their accumulation upon NMT1/2 depletion; (ii) an acetylated fraction of SFKs may exist under physiological conditions; (iii) DCAF10 might recognize additional surfaces.
(§19) Reactions contained E1, UBCH5B (E2), ubiquitin, Mg-ATP in ligation buffer and were incubated with bead-bound substrates, followed by washing and immunoblot detection of ubiquitinated species (anti-ubiquitin), with loading controls (anti-Lyn, -Fyn, -Src or -GFP) (n = 3 independent enzymatic assays). Complete reagent lists, complex preparation, substrate IP conditions, wash buffers, and gel/blot parameters are provided in the Supplementary Methods and Tables.
(§20) 357 (v/v) glycerol, 2 mM TCEP, supplemented with Protease Inhibitor Cocktail), and lysed
(§21) 358 by sonication. Lysates were cleared by centrifugation at 28,000 rpm for 45 min at 4 °C […]
(§22) 382 EDTA, and loaded on a gradient gel (4–15%). Ubiquitination of substrates was assessed
(§23) 383 by WB using an anti-ubiquitin antibody. Equal substrate loading was evaluated by anti- […]

[4] = test system: Fyn; test: In vitro ubiquitination of immunoprecipitated Fyn; format: biochemical, human; details: DCAF10 pocket mutant complex
Description: as §18, §19, §20, §21, §22, §23

[5] = test system: Lyn; test: In vitro ubiquitination of immunoprecipitated Lyn; format: biochemical, human; details: DCAF10 pocket mutant complex
Description: as §18, §19, §20, §21, §22, §23

Row | Molecule | THOC7 level (in words) [1] | Lyn level, fold decrease compared to control cells [2] | Src ubiquitination (in words) [3] | Fyn ubiquitination (in words) [4] | Lyn ubiquitination (in words) [5]
1 | B1 | remained unchanged | ~ 2.1 fold |  |  | 
2 | B2 |  |  | Src ubiquitination was unaffected by the mutations | abolished ubiquitination of Lyn and Fyn | abolished ubiquitination of Lyn and Fyn
